Measured values reported in publication PMC8238635.

Assays:
[1] = molecular target: T1, Nsp8 (SARS-CoV-2 (taxid 2697049), UniProt P0DTD1 3943-4140); test: EMSA; split bands; settings: protein: recombinant, tags: N-terminal His6-TEV, cleaved, single strand
[2] = molecular target: T1, Nsp8; test: SEC-MALS-SAXS; 1:1 complex, high affinity; settings: protein: recombinant; tags: N-terminal His6-TEV, cleaved; label: 32P in EMSA; none in SEC; single strand
[3] = molecular target: T1, Nsp8; test: SEC-MALS-SAXS; settings: protein: recombinant; tags: N-terminal His6-TEV, cleaved
[4] = molecular target: Nsp8;Nsp12 (RdRp) (SARS-CoV-2 (taxid 2697049);SARS-CoV-2 …, UniProt P0DTD1;P0DTD1 3943-4140;4393-5324, |); test: SEC-MALS-SAXS; excess RNA; low or nonexistent binding; settings: protein: recombinant;recombinant, tags: N-terminal His6-TEV, cleaved;N-terminal His6-TEV, copies: 1;1

CAUGCUACGCGUAGCAUGCUACGCGUAGCAUG (ssRNA) [long ssRNA without poly-U 5' end]: binds ([1]; label: 32P).

UUUUCAUGCUACGCGUAGCAUGCUACGCGUAGCAUG (ssRNA) [long ssRNA (36 bases)]: binds [2].

B1: dsRNA (long ssRNA paired to short ssRNA) (dsRNA)
RNA 1: UUUUCAUGCUACGCGUAGCAUGCUACGCGUAGCAUG
RNA 2: CAUGCUACGCGUAGCAUGCUACGCGUAG
B1: binds [3]; no binding [4].

CAUGCUACGCGUAGCAUGCUACGCGUAG (ssRNA) [short ssRNA (28 bases)]: binds ([1]; label: 32P in EMSA, none in SEC).
